Consider 21 sequences from the DeepSol protein solubility set.

This data set is described as follows: soluble on expression in E. coli; label from the status in PepcDB or PDB records.
“MLTVDQVKELVGEIKDPIIDVPLKETEGIVEVSIKEEKEHVSVKLAMAQLGGAPQLDLQMAVVNALKENGAKTVGIRFETLPEEKVNQFKPKEENKPKTIEGLLSQNNPVEFIAIASGKGGVGKSTVAVNLAVALAREGKKVGLVDADIYGFSVPDMMGIDEKPGIKGKEVIPVERHGVKVISMAFFVEENAPVIWRGPMLGKMLTNFFTEVKWGDIEYLILDLPPGTGDVALDVHTMLPSSKEIIVTTPHPTAAFVAARAGAMAKHTDHSILGVIENMSYFESKETGNKEYVFGKGGGTKLADELNTQLLGELPLEQPSWNPKDFAPSIYQSDDRLGKIYSSIAQKVIAATNKLEHHHHHH”: the “soluble on expression in E. coli” value is “soluble”. The entry for “MLVGLIGYGAIGKFLAEWLERNGFEIAAILDVRGEHEKMVRGIDEFLQREMDVAVEAASQQAVKDYAEKILKAGIDLIVLSTGAFADRDFLSRVREVCRKTGRRVYIASGAIGGLDAIFSASELIEEIVLTTRKNWRQFGRKGVIFEGSASEAAQKFPKNLNVAATLSIASGKDVKVRLVADEVEENIHEILVRGEFGEMEIRVRNRPMRENPKTSYLAALSVTRILRNLKEGLVV” is “soluble”; for “MLVLGSGGARGYAHIGVIEELEARGYEITCIAGCSMGSVIGGIYAAGKLREYREWVESLDYLDVLRLLDVSFRLGAIRGERVFGKIHEILGEVNIEDLSIPYTAVATDLTNQQEIWFQEGCLHQAMRASAAIPSLFTPVMQGSRMLVDGGLLNPLPIVPVV” it is “soluble”. Regarding “MLVRDVMKSPVLTVGPEATLEEAYKLLLERGIRHLPVVEEGRLVGIVTDRDIRLATSHLNPKGPCPGCTRVGEVMTREVVTAHPLDPVEEAARVMRERKIGCLPVLEDEALVGIVTGIDLLDALLRLTGVTEPSGRLEVRLPDRPGELARLTGFLAGRGVNIHSLLSYPEGREFVRAVVRVNTLETHLLAEALRREGFDVLWPPKKPW”, the “soluble on expression in E. coli” value is recorded as “soluble”.

Turning to “MLYASYMSYVSIKMHASSNGAHISGAETLVDESRAYEFLSSFYQRANTHSKGKPEITTLTIRRIKDADIITIPALEVKCLPALHPSEAHRQVIEQLSNVVSPTIAQMALHTVLNARNMRGAILLCAHTGQRLDPYDPQRGVRASTFGVTPQESAGPTLNKSHFNEALVLASKVMSAPGIVAEICISDDPAYTTGYVTTENTYIRIPHMKDPYSPIGGRVFLLDTRVSTPEDTISYLEQKPVLITGVN”, the “soluble on expression in E. coli” value was “not soluble”.

As to “MLYKEPEDGEKIKFDKGKWIVPNKPVILYIEGDGIGPEITNAAIKVINKAVERAYGSSREIKWLEVYAGEKAEKLVNDRFPKETQEMLLKYRVVLKGPLETPIGKGWKSVNVAIRLMLDLYANIRPVKYIEGLESPLKHPEKVDMIIFRENTDDLYRGIEYPFNSEEAKKIRDFLRKELKVEIEDDTGIGIKVMSKYKTQRITRLAIQYAIEHKRKKVTIMHKGNVMKYTEGAFREWAYEVALKEYRDFIVTEEEINQGKPDQGKIILNDRIADNMFQQIIIRPEEYDIILAPNVNGDYISDAAGALIGNIGMLGGANIGDEGGMFEAIHGTAPKYAGKNVANPTGIIKAGELMLRWMGWNEAADLIEKAINMAIRDKKVTQDIARFMGVKALGTKEYADELIKIMDTI”, the “soluble on expression in E. coli” value was “soluble”. The entry for “MLYLAELLQGKNALITGAGRGIGRAVAIALAKEGVNVGLLARSEENLKAVAKEVEAEGVKAVIATADVSSYEEVTTAIETLKNGLGSIDILINNAGISKFGKFLELDVADWEKIIQVNLMGVYYATRAALPSMIEQQSGDIINISSTAGQKGAPVTSAYSASKFGVLGLTESLAMEVRKHNIRVTALTPSTVATDMAVDLGLTDGNPDKVMQAEDIAEFIVAQLKLNKRTFIKSAGLWSTNP” is “not soluble”. Regarding “MLYLHDIWVNWFEGEENGYNVCHFHEWRKDDQIELLDQVPLLKVSPALFHYIENSLSDLPKPLLDDVHQKAYVRKNHERIQLDYCFVVTDGAGVLAVDTIGYQIPIRKSRLIPRQEQLVYEMAAEAEERDYPLPRYEKEYHILSPAPELMCGLTRKERQLKQLLFMALDQLYSTKNTAQMRYWYTEWAPEKYAAIQKMSFDEAWEQLYNETKYGWSERHEQLCENLIKGQPFFEKLWEMEQEPKVN”, the “soluble on expression in E. coli” value was “soluble”. The entry for “MMAKKPPKPAPRRIFQERLKITALPLYFEGFLLIKRSGYREYEHYWTELRGTTLFFYTDKKSIIYVDKLDIVDLTCLTEQNSTEKNCAKFTLVLPKEEVQLKTENTESGEEWRGFILTVTELSVPQNVSLLPGQVIKLHEVLEREKKRRIETEQSTSVEKEKEPTEDYVDVLNPMPACFYTVSRKEATEMLQKNPSLGNMILRPGSDSRNYSITIRQEIDIPRIKHYKVMSVGQNYTIELEKPVTLPNLFSVIDYFVKETRGNLRPFICSTDENTGQEPSMEGRSEKLKKNPHIA” is “soluble”; for “MMARVTPDQALISFRNARILWAGHSESRKAVEQQIESLLTAMEKPADYARQLELQREHLDVLKWQINCAARECIYSQHQLMEACTEDALSNFMQANGAALTSALAPFLKGRGGVDVASRILRNALVRQLAITPPEIAGDYRMILDESGVMPDPMMVRDCQSSYTPAQQLRFQQRLDYINGMQE” it is “soluble”.

Consider “MMDESLCGGLPPEICEQLSVEEQIIKIRLEKRRFGREVTIIEGINEKEFNLKKLASTLKSRLATGGTAKNGRIELQGDHRHRVKKILVELGFPEENITIID”, for which the “soluble on expression in E. coli” value is “soluble”. For “MMEKPEGLKLIDENGRRIDGRKKYELRPIKMKVGVLKNANGSAYIEWGRNKIIAAVYGPRELHSKHLQRPDRAILRVRYNMAPFSVEERKKPGPDRRSIEISKVIKGALEPALILEMFPRTSIDVFIEVLQADAGTRVAGITAASLALADAGIPMRDLVAACAAGKIEGEIVLDLNKEEDNYGEADVPVAIMPLKNDITLLQMDGYLTKEEFIEAVRLAIKGAKAVYQKQREALKEKYLKIAQEVEESE”, the “soluble on expression in E. coli” value is given as “soluble”. With “MMGVKAEALTGGFSSAVFDSQRIFKKLMDGMARPGTPQTIETAVAPPLPLAAATGAVLLALCDHDTPVWLNGALRKTAVPGWIGFHTGAPATEEKGAAHFAVIEAGSAIASFGLFAQGSQEYPDRSTTLIIELSDLDGGRELLLSGPGIRHVNIISPSGLPDIFPMLWAENNAIFPRGVDVILTAGDKFVCLPRTTRIKPVEA”, the “soluble on expression in E. coli” value was “not soluble”. The entry for “MMIENLLIELLTEELPPKSLDKLGNAFAAVIADSLKSQNLTTPDTILTAFASPRRLAVHLTAIPAQAPDQVVALKLMPITVGLDAQGQPTPALHKKLAALGMENVDASALKRVQESKAEMLFLEQNVTGILLAAGLQKAMEDAIRQLPVSKVMTYQLDDGWENVHFVRPVHGLIALHGQKIIPVSAFGLTAGNTTRGHRFEVKQTELIIDHADRYASLLETEGAVIPGFDRRRSWIREGLEAAASAVQLRCISDEVLLDEVTALVEYPNILMGAFPTDFLEVPQECLISTMKINQKYFPLLDTDGKLTNQFLIVANITPADPGQIISGNERVIRSRLADAKFFFDHDRKRTLASRLPDLDKVIYHHQLGSQGERTRYVQTLARIIGRLLGDDNLAGQADQAAMLAKADLLTDMVGEFPELQGIMGRYYARFEGMDETIAFAIEDHYKPRFAGDVLPRSMAGICVALADKLETLISLFSIGQLPTGDKDPYALRRHALGVIRILIEKNLPIGLDVLISRAADVLQDEMIGKQDSGPGHARPVTPQLVGQLQDFFYDRLAASLRDQGYTAQEVEAVLNLRPSL” is “not soluble”; for “MMKEMTVQQMTEKVLNKESLFILDVRNESDFRDWKIEGENFAYLNVPYFELVHGVDSIVDRLPKDQDIVVVCAKGGSAAFVAEQLAEAGFDNVYTLAGGMQAWSEHLHQAKVYEDDQLKIYQFIRVGKGCLSYMVLSGDEALVVDPLRFIDVYEQVAQQEGVTITHIVDSHLHADHLSGGKALAERTGAAYYLMKSEGAVFDFEPLEQHETIDFENVHLEVLAVKTPGHTPGSVSFFVNGKWLFSGDTIFVGGLGRPDLGGKVAEWAEDLYHTVYEKVAAMADDVIVLPAHYANLDEEINAEGYVGDTLGRIRARNEMMQNKAKDEFIDLVIQGAKTETPPNFEDIVAINRGLKTVDIETQRELEIGPLEHHHHHH” it is “soluble”.

Consider “MMKKTPTSTKDSLPNKEMNDLPRLASAVLPLCSQHPGQCGLFPLEKSLDAFAARYRLAEMAEHTLDVQYYIWQDDMSGRLLFSALLAAAKRGVRVRLLLDDNNTPGLDDILRLLDSHPRIEVRLFNPFSFRLLRPLGYITDFSRLNRRMHNKSFTVDGVVTLVGGRNIGDAYFGAGEEPLFSDLDVMAIGPVVEDVADDFARYWYCKSVSPLQQVLDVPEGEMADRIELPASWHNDAMTHRYLRKMESSPFINHLVDGTLPLIWAKTRLLSDDPAKGEGKAKRHSLLPQRLFDIMGSPSERIDIISSYFVPTRAGVAQLLRMVRKGVKIAILTNSLAANDVAVVHAGYARWRKKLLRYGVELYELKPTREQSSTLHDRGITGNSGASLHAKTFSIDGKTVFIGSFNFDPRSTLLNTEMGFVIESETLAQLIDKRFIQSQYDAAWQLRLDRWGRINWVDRHAKKEVILKKEPATSFWKRVMVRLASILPVEWLL”, for which the “soluble on expression in E. coli” value was “not soluble”. As for “MMKPSVSAAILAAGTSTRMNEMKQLAKIQGTYMLKYVIDQVSNHPFQHIFVIVGHQADIVMKMIQVEDKRVQWLVNDQYKQGQSTSFKLAMEQARQYGDAVMMFLADQPLIEKETVNIVLNEGITRVQEEPFIVRPMYEKKEGHPVYWGNIHALDCSAVNGDKGGKTLMEELERMLIPVHDQGVLVDVDTCEDYKKVNDLMKRKSPSTHLEHHHHHH”, the “soluble on expression in E. coli” value was “not soluble”.

“MMKTLLPFFGVVRVSGEDRQTFLHGQLSNDINNLQTGQACYATYNTPKGRVIANMIVVNRGGDLLLIMAQDLLEATVKRLRMFVLRAKAVFEILEDYAVGAELEASAEPLAAQEPNLAFAAQQDSDGICSIALPHGGILRIAPKNTLPPYDAAAENAWRLHEIRSGYPWICAATKETAVAQMLNQHIIGGVHFKKGCYPGQEIIARAQYRGQVKRGLAVLSGNSAAEAGSVLAADGEEAGIVLDSVQDSENFTALAVIKFSAAQKELTVPNGGIFKAVHLFFKTENAELEHHHHHH”: the “soluble on expression in E. coli” value is reported as “soluble”. Consider “MMLSRAKPAVGGESPHTDKRKKKGRKIPKLEDLLSQRDFTGAITLLEFKRHVGEQEDDTNLWIGYCAFHLGDYKRALEEYENATKEENCNPEVWVNLACTYFFLGMYKQAEAAGFKAPKSRLQNRLLFHLAHKFNDEKKLMNFHQNLQDIKEDQLSLASNSEIHLPLPPECWD”, for which the “soluble on expression in E. coli” value is given as “not soluble”. The entry for “MMNYRKADMKDISLLVSIRKRQLIDEGIEPNIDIDKELTRYFNNKLANNLLVEWIAEENNQIIATAAIAFIDFPPTYTNKTGRKGYITNMYTEPTSRGNGIATGMLDRLVNEAKERNIHKICLVASKLGRPVYKKYGFQDTDEWLELNLLEHHHHHH” is “soluble”; for “MMRIAVKEFLKIRRELKTLSDIRKLPYPRGTLHCILQQKKVDSVKRKYHTFAERIPEIISYWEREKKFPKWLTLPPVMKIRLLMKGMGFSAKSINKALRNPEDVVEDEKLAEQIRKAVLSDYVYSPIAARLQRARGKLGERGLAYELEKAGIEFLTEKDLKGRFSKTPDFYFEEPVEFMGEELKWIESKALFGDPRSHDLYWKKQYSKYYEMFGNGLIVYWLGCVESIEASDGSEFKNGYRTSLLDMLLYLTDSKDESYAERLNARFIEVNEQNDVLAAEKVVDAYAEGRVLAFTDRKREVARILKNMGFDVTLGQNYLTTLTANTLCHSPTANKAISLLSSLLCLINHPNLLLSAENPASLKFLLKYLFRNLLEHHHHHH” it is “not soluble”.
